Biological target: NK1 receptor (human) (UniProt P25103)
Assay: cell-based or functional assay

Sequence of NK1 receptor (human) (P25103 87-407): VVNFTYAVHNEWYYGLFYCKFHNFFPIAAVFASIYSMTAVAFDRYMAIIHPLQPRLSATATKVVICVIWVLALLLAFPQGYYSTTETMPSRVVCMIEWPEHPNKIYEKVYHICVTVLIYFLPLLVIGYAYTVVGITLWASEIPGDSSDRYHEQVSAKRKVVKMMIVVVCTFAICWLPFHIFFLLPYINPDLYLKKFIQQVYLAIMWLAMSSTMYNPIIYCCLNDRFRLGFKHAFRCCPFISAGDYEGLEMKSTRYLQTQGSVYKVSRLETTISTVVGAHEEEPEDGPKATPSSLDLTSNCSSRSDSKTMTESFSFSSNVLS

antibody against NK1 receptor (Sigma-Aldrich, catalogue number S8305)
96%: Percentage of inhibition of cell cultures; Malignant Fibrous Histiocytoma.; Group 3 (expression in more than 80% of the cells) | Percentage of inhibition of cell cultures; Melanoma; Group 3 (expression in more than 80% of the cells) | Percentage of inhibition of cell cultures; Myeloma; Group 3 (expression in more than 80% of the cells) | Percentage of inhibition of cell cultures; Non Hodgkin Lymphoma B; Group 3 (expression in more than 80% of the cells) | Percentage of inhibition of cell cultures; Non Hodgkin Lymphoma B; Intensity grade 3 | Percentage of inhibition of cell cultures; Non Hodgkin Lymphoma T; Group 3 (expression in more than 80% of the cells) | Percentage of inhibition of cell cultures; Ovarian carcinoma (Adenocarcinoma); cases with presence of ERK | Percentage of inhibition of cell cultures; Ovarian carcinoma; Intensity grade 3 | Percentage of inhibition of cell cultures; Pancreatic carcinoma; Group 3 (expression in more than 80% of the cells) | Percentage of inhibition of cell cultures; Prostate carcinoma; Group 3 (expression in more than 80% of the cells) | Percentage of inhibition of cell cultures; Thyroid carcinoma (follicular carcinoma); cases with presence of AKT | Percentage of inhibition of cell cultures; Thyroid carcinoma (follicular carcinoma); cases with presence of ERK | Percentage of inhibition of cell cultures; Thyroid carcinoma (folliculary type); Group 3 (expression in more than 80% of the cells) | Percentage of inhibition of cell cultures; Urinary bladder carcinoma; Intensity grade 3
53%: Percentage of inhibition of cell cultures; Neuroblastoma; Intensity grade 2 | Percentage of inhibition of cell cultures; Pancreatic carcinoma; Group 2 (expression in 20-80% of the cells) | Percentage of inhibition of cell cultures; Renal cell carcinoma; Intensity grade 2 | Percentage of inhibition of cell cultures; Thyroid carcinoma (folliculary type); Intensity grade 2 | Percentage of inhibition of cell cultures; Thyroid carcinoma (papillary type); Group 2 (expression in 20-80% of the cells)
23%: Percentage of inhibition of cell cultures; Lung carcinoma (non small cell type); Group 1 (expression in less than 20% of the cells) | Percentage of inhibition of cell cultures; Melanoma; Intensity grade 1 | Percentage of inhibition of cell cultures; Myeloma; Group 1 (expression in less than 20% of the cells) | Percentage of inhibition of cell cultures; Non Hodgkin Lymphoma B; Group 1 (expression in less than 20% of the cells) | Percentage of inhibition of cell cultures; Non Hodgkin Lymphoma T; Group 1 (expression in less than 20% of the cells) | Percentage of inhibition of cell cultures; Ovarian carcinoma; Intensity grade 1 | Percentage of inhibition of cell cultures; Pancreatic carcinoma; Group 1 (expression in less than 20% of the cells) | Percentage of inhibition of cell cultures; Prostate carcinoma; Group 1 (expression in less than 20% of the cells) | Percentage of inhibition of cell cultures; Renal cell carcinoma; Intensity grade 1 | Percentage of inhibition of cell cultures; Urinary bladder carcinoma; Group 1 (expression in less than 20% of the cells)
28%: Percentage of inhibition of cell cultures; Melanoma (Nodular Melanoma); cases without presence of ERK | Percentage of inhibition of cell cultures; Urinary bladder carcinoma (transitional cell carcinoma); cases without presence of ERK
34%: Percentage of inhibition of cell cultures; Renal cell carcinoma (clear cell renal cell carcinoma); cases without presence of AKT
88%: Percentage of inhibition of cell cultures; Urinary bladder carcinoma (transitional cell carcinoma); cases with presence of ERK
52%: Percentage of inhibition of cell cultures; Renal cell carcinoma; Group 2 (expression in 20-80% of the cells)
24%: Percentage of inhibition of cell cultures; Lung carcinoma (non small cell type); Intensity grade 1 | Percentage of inhibition of cell cultures; Lung carcinoma (small cell lung carcinoma); cases without presence of AKT | Percentage of inhibition of cell cultures; Lung carcinoma (small cell type); Group 1 (expression in less than 20% of the cells) | Percentage of inhibition of cell cultures; Melanoma; Group 1 (expression in less than 20% of the cells) | Percentage of inhibition of cell cultures; Non Hodgkin Lymphoma B (diffuse B cell lymphoma); cases without presence of AKT | Percentage of inhibition of cell cultures; Ovarian carcinoma (Adenocarcinoma); cases without presence of AKT | Percentage of inhibition of cell cultures; Ovarian carcinoma (Adenocarcinoma); cases without presence of ERK | Percentage of inhibition of cell cultures; Ovarian carcinoma; Group 1 (expression in less than 20% of the cells) | Percentage of inhibition of cell cultures; Prostate carcinoma; Intensity grade 1 | Percentage of inhibition of cell cultures; Thyroid carcinoma (follicular carcinoma); cases without presence of AKT | Percentage of inhibition of cell cultures; Thyroid carcinoma (papillary carcinoma); cases without presence of AKT | Percentage of inhibition of cell cultures; Thyroid carcinoma (papillary type); Intensity grade 1
98%: Percentage of inhibition of cell cultures; Non Hodgkin Lymphoma B (diffuse B cell lymphoma); cases with presence of ERK
94%: Percentage of inhibition of cell cultures; Lung carcinoma (non small cell type); Group 3 (expression in more than 80% of the cells) | Percentage of inhibition of cell cultures; Lung carcinoma (small cell lung carcinoma); cases with presence of AKT | Percentage of inhibition of cell cultures; Lung carcinoma (small cell lung carcinoma); cases with presence of ERK | Percentage of inhibition of cell cultures; Lung carcinoma (small cell type); Intensity grade 3 | Percentage of inhibition of cell cultures; Non Hodgkin Lymphoma T (diffuse T cell lymphoma); cases with presence of AKT | Percentage of inhibition of cell cultures; Pancreatic carcinoma (Adenocarcinoma); cases with presence of ERK | Percentage of inhibition of cell cultures; Pancreatic carcinoma (Adenocarcinoma); cases without presence of AKT | Percentage of inhibition of cell cultures; Pancreatic carcinoma (Adenocarcinoma); cases without presence of ERK | Percentage of inhibition of cell cultures; Renal cell carcinoma (clear cell renal cell carcinoma); cases with presence of AKT | Percentage of inhibition of cell cultures; Renal cell carcinoma; Group 3 (expression in more than 80% of the cells) | Percentage of inhibition of cell cultures; Thyroid carcinoma (papillary type); Group 3 (expression in more than 80% of the cells) | Percentage of inhibition of cell cultures; Thyroid carcinoma (papillary type); Intensity grade 3
32%: Percentage of inhibition of cell cultures; Renal cell carcinoma (clear cell renal cell carcinoma); cases without presence of ERK
29%: Percentage of inhibition of cell cultures; Lung carcinoma (non small cell lung carcinoma); cases without presence of ERK | Percentage of inhibition of cell cultures; Non Hodgkin Lymphoma B (diffuse B cell lymphoma); cases without presence of ERK
55%: Percentage of inhibition of cell cultures; Lung carcinoma (non small cell type); Group 2 (expression in 20-80% of the cells) | Percentage of inhibition of cell cultures; Lung carcinoma (non small cell type); Intensity grade 2 | Percentage of inhibition of cell cultures; Malignant Fibrous Histiocytoma.; Intensity grade 2 | Percentage of inhibition of cell cultures; Melanoma; Group 2 (expression in 20-80% of the cells) | Percentage of inhibition of cell cultures; Non Hodgkin Lymphoma B; Intensity grade 2 | Percentage of inhibition of cell cultures; Non Hodgkin Lymphoma T; Group 2 (expression in 20-80% of the cells) | Percentage of inhibition of cell cultures; Ovarian carcinoma; Group 2 (expression in 20-80% of the cells) | Percentage of inhibition of cell cultures; Urinary bladder carcinoma; Intensity grade 2
97%: Percentage of inhibition of cell cultures; Lung carcinoma (non small cell type); Intensity grade 3 | Percentage of inhibition of cell cultures; Melanoma (Nodular Melanoma); cases with presence of AKT | Percentage of inhibition of cell cultures; Melanoma; Intensity grade 3 | Percentage of inhibition of cell cultures; Non Hodgkin Lymphoma T (diffuse T cell lymphoma); cases with presence of ERK | Percentage of inhibition of cell cultures; Ovarian carcinoma; Group 3 (expression in more than 80% of the cells) | Percentage of inhibition of cell cultures; Renal cell carcinoma; Intensity grade 3
89%: Percentage of inhibition of cell cultures; Thyroid carcinoma (papillary carcinoma); cases with presence of AKT | Percentage of inhibition of cell cultures; Thyroid carcinoma (papillary carcinoma); cases with presence of ERK
90%: Percentage of inhibition of cell cultures; Melanoma (Nodular Melanoma); cases with presence of ERK | Percentage of inhibition of cell cultures; Prostate carcinoma; cases with presence of AKT | Percentage of inhibition of cell cultures; Prostate carcinoma; cases with presence of ERK | Percentage of inhibition of cell cultures; Undifferentiated Pleomorphic Sarcoma (malignant fibrous histiocytoma grade 3); cases with presence of AKT | Percentage of inhibition of cell cultures; Undifferentiated Pleomorphic Sarcoma (malignant fibrous histiocytoma grade 3); cases with presence of ERK
26%: Percentage of inhibition of cell cultures; Non Hodgkin Lymphoma B; Intensity grade 1 | Percentage of inhibition of cell cultures; Prostate carcinoma; cases without presence of AKT | Percentage of inhibition of cell cultures; Thyroid carcinoma (follicular carcinoma); cases without presence of ERK | Percentage of inhibition of cell cultures; Thyroid carcinoma (folliculary type); Intensity grade 1
57%: Percentage of inhibition of cell cultures; Prostate carcinoma; Group 2 (expression in 20-80% of the cells)
25%: Percentage of inhibition of cell cultures; Lung carcinoma (non small cell lung carcinoma); cases without presence of AKT | Percentage of inhibition of cell cultures; Lung carcinoma (small cell type); Intensity grade 1 | Percentage of inhibition of cell cultures; Malignant Fibrous Histiocytoma.; Intensity grade 1 | Percentage of inhibition of cell cultures; Melanoma (Nodular Melanoma); cases without presence of AKT | Percentage of inhibition of cell cultures; Myeloma; Intensity grade 1 | Percentage of inhibition of cell cultures; Neuroblastoma; Intensity grade 1 | Percentage of inhibition of cell cultures; Non Hodgkin Lymphoma T (diffuse T cell lymphoma); cases without presence of AKT | Percentage of inhibition of cell cultures; Thyroid carcinoma (folliculary type); Group 1 (expression in less than 20% of the cells) | Percentage of inhibition of cell cultures; Undifferentiated Pleomorphic Sarcoma (malignant fibrous histiocytoma grade 3); cases without presence of AKT | Percentage of inhibition of cell cultures; Urinary bladder carcinoma (transitional cell carcinoma); cases without presence of AKT | Percentage of inhibition of cell cultures; Urinary bladder carcinoma; Intensity grade 1
56%: Percentage of inhibition of cell cultures; Lung carcinoma (small cell type); Group 2 (expression in 20-80% of the cells) | Percentage of inhibition of cell cultures; Malignant Fibrous Histiocytoma.; Group 2 (expression in 20-80% of the cells) | Percentage of inhibition of cell cultures; Melanoma; Intensity grade 2 | Percentage of inhibition of cell cultures; Myeloma; Group 2 (expression in 20-80% of the cells) | Percentage of inhibition of cell cultures; Myeloma; Intensity grade 2 | Percentage of inhibition of cell cultures; Non Hodgkin Lymphoma T; Intensity grade 2 | Percentage of inhibition of cell cultures; Prostate carcinoma; Intensity grade 2 | Percentage of inhibition of cell cultures; Thyroid carcinoma (papillary type); Intensity grade 2
54%: Percentage of inhibition of cell cultures; Lung carcinoma (small cell type); Intensity grade 2 | Percentage of inhibition of cell cultures; Neuroblastoma; Group 2 (expression in 20-80% of the cells) | Percentage of inhibition of cell cultures; Non Hodgkin Lymphoma B; Group 2 (expression in 20-80% of the cells) | Percentage of inhibition of cell cultures; Ovarian carcinoma; Intensity grade 2 | Percentage of inhibition of cell cultures; Pancreatic carcinoma; Intensity grade 2 | Percentage of inhibition of cell cultures; Thyroid carcinoma (folliculary type); Group 2 (expression in 20-80% of the cells) | Percentage of inhibition of cell cultures; Urinary bladder carcinoma; Group 2 (expression in 20-80% of the cells)
95%: Percentage of inhibition of cell cultures; Lung carcinoma (non small cell lung carcinoma); cases with presence of ERK | Percentage of inhibition of cell cultures; Lung carcinoma (small cell type); Group 3 (expression in more than 80% of the cells) | Percentage of inhibition of cell cultures; Malignant Fibrous Histiocytoma.; Intensity grade 3 | Percentage of inhibition of cell cultures; Myeloma; Intensity grade 3 | Percentage of inhibition of cell cultures; Neuroblastoma; Group 3 (expression in more than 80% of the cells) | Percentage of inhibition of cell cultures; Non Hodgkin Lymphoma B (diffuse B cell lymphoma); cases with presence of AKT | Percentage of inhibition of cell cultures; Non Hodgkin Lymphoma T; Intensity grade 3 | Percentage of inhibition of cell cultures; Ovarian carcinoma (Adenocarcinoma); cases with presence of AKT | Percentage of inhibition of cell cultures; Pancreatic carcinoma (Adenocarcinoma); cases with presence of AKT | Percentage of inhibition of cell cultures; Renal cell carcinoma (clear cell renal cell carcinoma); cases with presence of ERK | Percentage of inhibition of cell cultures; Thyroid carcinoma (folliculary type); Intensity grade 3 | Percentage of inhibition of cell cultures; Urinary bladder carcinoma; Group 3 (expression in more than 80% of the cells)
22%: Percentage of inhibition of cell cultures; Malignant Fibrous Histiocytoma.; Group 1 (expression in less than 20% of the cells) | Percentage of inhibition of cell cultures; Neuroblastoma; Group 1 (expression in less than 20% of the cells) | Percentage of inhibition of cell cultures; Pancreatic carcinoma; Intensity grade 1 | Percentage of inhibition of cell cultures; Renal cell carcinoma; Group 1 (expression in less than 20% of the cells) | Percentage of inhibition of cell cultures; Thyroid carcinoma (papillary type); Group 1 (expression in less than 20% of the cells)
91%: Percentage of inhibition of cell cultures; Urinary bladder carcinoma (transitional cell carcinoma); cases with presence of AKT
27%: Percentage of inhibition of cell cultures; Lung carcinoma (small cell lung carcinoma); cases without presence of ERK | Percentage of inhibition of cell cultures; Non Hodgkin Lymphoma T (diffuse T cell lymphoma); cases without presence of ERK | Percentage of inhibition of cell cultures; Non Hodgkin Lymphoma T; Intensity grade 1 | Percentage of inhibition of cell cultures; Prostate carcinoma; cases without presence of ERK | Percentage of inhibition of cell cultures; Thyroid carcinoma (papillary carcinoma); cases without presence of ERK | Percentage of inhibition of cell cultures; Undifferentiated Pleomorphic Sarcoma (malignant fibrous histiocytoma grade 3); cases without presence of ERK
93%: Percentage of inhibition of cell cultures; Neuroblastoma; Intensity grade 3 | Percentage of inhibition of cell cultures; Pancreatic carcinoma; Intensity grade 3 | Percentage of inhibition of cell cultures; Prostate carcinoma; Intensity grade 3
